Experimental findings from the NTF2 design screens of Basanta et al. (2020) are described below.

The data set can be described thus: protease stability score; higher = more stable; yeast display proteolysis, trypsin and chymotrypsin.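 Also: log10 excess protease needed over predicted unfolded state with 0 meaning unfolded.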

“DEKKTKELLKEAMKALHNGNEEKVKKLGGPDVEVHAFNYRNRGPEAMVEMARLAQRVGTEFQYREERFEGNRVKTVVEVTVGGDTVRYEVQATVEGGEVKRWEAHVDEKFIEHVEKS”: the protease stability score stood at 0.174.

In the case of “DEKKVEKVVREALKAMINGDKDKVRKLLKPDVQFHAGDVEMHGVDQVVKYYEKIKRQGVEMHIKEVKVTGNEAEVKYDLRADGTEATVKAKVVVENEKVDHVTAELTKTYDDLVKKS”, the protease stability score was -0.107.

As to “DEKKVEQAEQWIRNLQTGDPDKANDMFDPNAEITVGDHVVHGREEFKDRMEKDMRNMRIKFEDVHASVKNGRVTVSVDQVDTNNGKPKRYRYNLTIDLRNGKVTEIVNKEDK”, the protease stability score worked out at 0.066.

For “DEKKVHEVLKKLRKALEQGNVDEMVKMGKPDVEFHFFDTKIEGLDQLHEYYKTMKDHGAELHVEETKVEGNKVEVVYVLKLGGTQVKVTAQIEIKDERVVRARAENTEEYKKRVKKG”, the protease stability score came to 0.359.

“DEKKVKEIAKKAFEYAVKGNEEQLQKLVKPNVDYEYVDEKYEGEDVVKKMVRLLKKVGAEVKIKRYEVKGDTVKADFDYNKGDKTVRTTAEVVYNGDKITQARLELTDEVKKIMHQG” displayed a protease stability score of 0.681.

With “DEKKVKELIDQVVEAIQKGDVEHLLKLGKPDVTFTVGDVEIRGLEHLKKYYKQVKDDGAELHVKKVEVKGNTAQVHYDMKYGGTKATVTVNIEAKDHKVDRAEAKMDKDYLKYVRDG”, the protease stability score turned out to be 0.644.

In turn, “DEKKVKELLVRAVQAYVNGNTEEVKKLLKEDVQLHAVNHTYHGVEQLLKVVKRMKEYGIKLQVTDHKVDGDKVDVKVQFHAAGETKEVTFRVQADGGKVDKVEVHVTEEVQKLAEKG” had a protease stability score of 1.05.

As for “DEKKVKELVDTLFDVMRKGDAERFRRYLKPDVRFEFGDITMQGPDQMEKYYRQDQKYGNEMHIKHKEVHGDRAKVTYDVEIKGTRATVEAEVHVRDEKVDEAKAEFDEDYKKYFTKG”, the protease stability score was -0.121.

For the sequence “DEKKVKEMVTEAQKAIENNDSDTMAKFLKPDVEFHFGDVKLKGPEDVKKYYDKVRRVGMEAHVKEAEVKGDTAQVVYDVEVKGKRVTITARVQMKDERVDRAEVELDEDYAREVTEG”, the protease stability score was -0.02.

Consider “DEKKVKKVADKVMRVAANGDNETARKLGKPDVTFEAGSNKMRGVEQVDKYYEKVKRQGNELHIKEVKVEGDRAKVKYDIKIGGTEMTVTAEVYIENDKVEKARIEMDEDYEKKVTKG”, for which the protease stability score is -0.338.

For “DEKKVLEVIQKFAEAIKDGNAEQAKKLGKEGIQVHIGDETINGPDQVEKYVKKVKDLGNEVHYKEKEVKGDEVTVHTEVKMGDQTVHFEVHYRAKDDKVEQFHVKFDKDEARRFKTS”, the protease stability score is -0.27.

The sequence “DEKKVQEVAKDALKVDLQGDVEKMKKLGKPDVTFQLGDQEVHGPDDLKKYYDKVKRLGEEIHVKKVKVEGDKMQAHYELRVAGKQATVTVEVTVKDEKVEEARAEMTEKYKKALEEG” showed a protease stability score of -0.154.

In turn, “DEKKVREFMERLFKAAENGNKDELRKVLMPNVKYQYVDKEKEGEEVAKEVAKAVKKVGAEIKKQEERVKGDTVEAVFQYKQGDTTVQTTVQIKYEGDKAKEVRVKLSDEVKKIVHRG” showed a protease stability score of -0.079.

In the case of “DEKKWEQWARHFNQLMKQNDPDTLMQLFDPNARVKYGDKEVHGRTQIVKMWQTLVEQVDHIRIKNYSVSGDHVVIEIIVVVNGQEVEFVFRARVHNGTIKSASIDYRNEEHYKRAQG”, the protease stability score came to 0.264.

In turn, “DEKKYEELLREVQKYLYQGNYEEAQKVLAPNVVFEVGDYKMNGLEQVMKYYKKVKDRGAEIHVEEMEVTGHKARVVYKLHVGGRTIEVTAEVKVEDERVKKARVEVSEEYVKHVQHG” returned a protease stability score of 1.61.

“DEKLEKLVDEFIEAEHTNNPEELKKLIDPNARFRIGDKDVHGREEWNEDMKRINDELRIEVHIKHVDARGDHVDIEMEFTFNVNGRPVNQTAKQQIKFENGRMKRVVNNVSEDQVEQLHR” came in with a protease stability score of 0.194.

The sequence “DEKLHHQIKEFIKAMKNGDPDKVQELADPNAEFRVGDKEIHGMDKYHKTVHDRHRKQRVNIQLHQLTVKGDKAEFVVTIDVQHNGQPSNDVYRAVIKLKNGKIQVVDRQKDQ” registered a protease stability score of -0.138.

As to “DEKLIKLLKSLLKIQESGDPDKLRTMADPNVRFNIGDKVFHGMEEYATHVVELRKQAHIRIERLSNSDSNGVVNADFTRVNNHNGKPDSRRQEVTYVAHGDRIKEVNNQDHQ”, the protease stability score is -0.503.

For the sequence “DEKLLDLLEKILQAEHENDPDQARELADPNVKYRYGDKSVNGRHEWVKDLERKTQKIKVEYKRIQVDAKGDKAHANVHMTVNHNGKPDKVLMEIVVRAHNGKVTELTVHEDK”, the protease stability score is 0.041.

In turn, “DEKLLELAKKMRRAEETGDEDQLREMADKDAKFDIGDKRIHGMDTFVRQIKHELDKMRREITSVEFRVEGEEVVIHVHWVYSHNGQPRTKEYTMKFEIRGDKIKDLHIDNRG” gave a protease stability score of 0.007.

“DEKLLKRLEEFWKAVRKGNKQEIEEYADPNVRFQIGDKQVHGRENAKKYFHDERREIRIEYHDLKVRVRGDRIEIRYTVQYTHNGQPTERHYDIEIVLNGEKMKSMSVRTDR” had a protease stability score of -0.026.

“DEKMLQHMEDALRRNDEQRLVELVDEDVKIKIGDRDVHGSERAQKIAETRKERIDSQDFKSMDLSGNKVTVDRVVVVNGVKFRVVVIYELSNGRIKRIEVRVTDEENKRRLQKQLS” displayed a protease stability score of 0.63.

Regarding “DEKNDRVLRRVMEAIHRGDPDKIHNQLDPNVKAEVGDKRFHGMEHIVEQVKRNWDNMRMRMKDVTVEDHNGQANAKVTYEVTENGQPKRAHVTVQAHAHDGRLTSVTYDTHE”, the protease stability score is -0.371.

Consider “DEKNEDAARKLFNAWKQNDPDHARKLADPNVRFKYGDTQVHGRDQYARELRETNKQMRLEYKHVTIRVKNGNAEVNMNVRYNHNGQPRESTRRMTFKVENGKLVDVDIKTDK”, for which the protease stability score was 0.133.

As to “DEKNLNQLKDLIKTNDEERIHELMDPNVRLVIGDQEVQGRENVFKVLKRWRERADHVRYNDLKLHDGRAFADVEINVNGENIRVHYVYVAHNGRIKEIKVTATDEDEQRKVEDNYK”, the protease stability score stood at 1.37.

For “DEKNMRVVETYLKALTRGDPDQAMRQVDEDVELTVGDKEVKGREEFSKLVKKWQDQARFSLQIHRVKVHENHVNINAEVTWDVNGKPQSFSHIIHARVHNGRIKHMSWEVPTEEWQNIEK”, the protease stability score worked out at 1.29.

The sequence “DEKNSKLAKDFFEAIESNNPEHAKELADENARYQVGDKQLHGMDEVLKHIKRENERAQVTVSSMTFRISNGRVEVHMDVQRDDNGDPDKKNLVVNFHFRNGKIKEVQDKNDS” displayed a protease stability score of 0.614.

The sequence “DEKQADRAEKFMRALNEGNEDQATRLFDPNAHVVYGDTEVHGRERIRETIRNLQREMSVRYEVHRIEDRNGHVNLHADVTLQHNGRPARYVLTINVRADNGTIVSLNMRVPEEEKEKMKG” returned a protease stability score of 0.15.

For “DEKQAKELADEYIKAFEEGDPDKHQELVDKDAQVNYGDKTLHGREEFRKLVEELRRQADHISVHNVDYQGNKVVVHYVVDVNGHKVELSYTVQYHDGRMKQASVSYRSEDLKREQEQ”, the protease stability score was found to be 0.384.

“DEKQAKKVLKQMVKAVFNNDEELLKKLGKEDVEVQFMDTKYKGPDQLKKILEQYKRYGIEFHIKKTKVEGDKMQVHAQVHLADNTADVTAEYQADNGKVDHTRVQFSDTAKEVFKKG”: the protease stability score was -0.003.

Consider “DEKQALDVAHEAARAVAEGDDQKLREHMDPNATMEYGDKQVHGRENIMRVAKEFRDRADNVEIKSVHLTGNKVNVHVLLTHNGHTQRVRIDAKAHNGRVKSIRLDDK”, for which the protease stability score turned out to be 1.06.

In the case of “DEKQDKHYKKMMDEGDWKHFANNADPNARVDIGDKEYHGREQVNKALRRISEQADDFRVHDVQVENGRVRADVEFHVNGRSLKVDIRAVLHNGEVTHFHMSVTSEEVKQMLREIFD”, the protease stability score turned out to be 0.289.

“DEKQDRDIQRVLHDNNPDHMKKLVDENAHAQVGNKTYHGREQVLTLIEHMVRTVDHMSIDKVEVKNGKADMDYHVNINGQSARVRVDVKFHNGRIKEIRIQATDKEVRDILDEAFD” yielded a protease stability score of 1.23.

With “DEKQKKDLLKQAVEMYLSGNSEEVRKLLKDDGEVEAGDQTYKGVEQVMKVVEQFKRYGVKLQMTDLKVDGDTVKVKAKLQNGGKTWEFEVTAQADGGKVDKITFKYSEEAKEDIEKG”, the protease stability score is -0.056.

For “DEKQLHRVRHFLEVVRQGDEDNLREMADPNVRMVVGDKQFHGREEAVKFLVHKAKELRIDVKFKTINVRGDKVKAVAEMTENQNGKPHHAKLTWEIQMSNGKIQQLDFKLST”, the protease stability score stood at 0.275.

Sequence “DEKQLKHVQEWVETGDPDQFARNADPNAEIQIGNTTWQGREEIQKLAHRLKKQVDTQELKDIQVHGDHVLVNRVMEWDGHTFEFSMHIKVQNGRIKSVDVKVRDPSQQKELEDHLS” displayed a protease stability score of -0.087.

With “DEKQLKKAADRMVKAMETGDPQQINRMADENVRVEVGDKRISGEEDINRWLKELSDQADHARVKSIDASGNTVRVEMTIVVNGRETKLTIHVHFENGTAHHVRFQKS”, the protease stability score came out at 0.223.

In turn, “DEKQLTLLRRIFEALLRNDEDKLKDLLDPNVKVRYGDKDLHGRENVAESIVRTNQEARFHVRRVTFRDHNGQAKVKVDFDQQHNGQPRSARLDVSMQRHNGRVKSISFKVDT” gave a protease stability score of 0.649.

The sequence “DEKQLVEVIREVIKALQQGHRDKVKKLGGPNVEVQAADYRNKGPEAILHMAEIVQRIGDEFQYRRTEQKGGTVTTTVEVHVGGHTVRYEVNAEAEGGKLKYWQADDDDKFIQHVKES” returned a protease stability score of 0.725.

As for “DEKQMEQVNKNMETGDWDKLQEQADEDVRLVVGEREFHGREQFSEFAKQAKRMVDDNTIHRIDLQGEKVKIKFVIKHNGRTVDVTVVMEVHNGRIKRYVLRARDEDAEDIIRKMLS”, the protease stability score was 0.902.

In turn, “DEKQMRSVTKFIRVLQHGDNNQLRRLADPNAKARVGEKDVTGMDDILTRWVTFVEQARVKIDIREMDVSNGKVVIDAHIEIDINGRPLRDKITIIAEYRNGRLKFLELHVDQDFMRKVKR” returned a protease stability score of 0.223.

Sequence “DEKQNAEKVMTDVERNLREGDDNKIKEMADKDAKADVGEKKVTGREDIAKMLATLNKSVDEVTLDLKHVTTQGDFLNVKADIKWRHNGTTRQNKVEMWVNDFNGNVVIKHLRIG” returned a protease stability score of 1.08.

Sequence “DEKQNDVVDDFMRAVREGDPTQLKSLVDPNARIQIGDRTYTGMEEYVTHVHKDLRKMRIEIRIKDIKAHNGHARIEFEVINTDNGRPDKKRMDVEFRIHNGKLKEAQYKSDR” gave a protease stability score of 0.766.

Sequence “DEKQNNHFKDLMETNDWTQIAKQADENAKAKYGDKTVHGRENITHNNRRIKNRVDEMRIRNLTLEPNRIVQNFVVRVNGQDAQAVMTLEFENGRVKSVKLQARDTRVEEVLRKMMQ” came in with a protease stability score of 0.465.

“DEKQNQEMQDMLHTGDFKRIADLVDENAEWNYGDKTYHGRKTIKKFLDAFQHRADHVEVKRFDVHNGHVSANMQMNVDGRRIDFRVVVHVENGRVKEYRMDFTDPRQQREVERQVE”: the protease stability score is 0.745.

Regarding “DEKQQARDLVKELRDALKHGNEKQVVKMADENAKLQVGDKKVHGRKDIDKWAKDLRDRVDHVRLEVRSIDVHNGRMKFTATFTETHNGRKKERTMTMRARIQGDKFKIQQINLS”, the protease stability score was determined as 0.247.

Turning to “DEKQVHKMARQLVKALEHNDPQKVADLVDENVRASIGDTEYHGREHVKKAIKQMVDSIDHMRVRTVTAHNGTIDIDFQVVVNGRTERYQMRAEVHNGRIQSLRVDKR”, the protease stability score turned out to be 2.02.
